Results published in article PMC4417188, “Molecular crowding enhances facilitated diffusion of two human DNA glycosylases”.

Key:
hUNG catalytic domain [1] = target: T1, hUNG catalytic domain (Homo sapiens, UniProt P13051 94-313); test: stopped-flow 2-AP fluorescence (koff/kon); conditions: 2'-beta-fluoro-2'-deoxyuridine (Ubeta), 2-aminopurine adjacent, paired with T, 20 mM HEPES pH 7.5, 3 mM EDTA, 1 mM DTT, 0.002% Brij 35, 22 mM total Na+, with or without PEG 8K, temperature not stated for binding assays
T1 sequence (P13051 94-313): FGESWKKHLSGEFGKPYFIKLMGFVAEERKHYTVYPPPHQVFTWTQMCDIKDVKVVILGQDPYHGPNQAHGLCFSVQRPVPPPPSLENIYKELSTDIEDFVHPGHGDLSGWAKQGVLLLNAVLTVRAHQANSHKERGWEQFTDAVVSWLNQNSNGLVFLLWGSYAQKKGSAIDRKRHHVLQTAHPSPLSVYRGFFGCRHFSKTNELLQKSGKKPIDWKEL

hUNG catalytic domain [2] = target: T1, hUNG catalytic domain; test: fluorescence anisotropy; 20% PEG 8K; 20 mM HEPES pH 7.5, 3 mM EDTA, 1 mM DTT, 0.002% Brij 35, 22 mM total Na+; with or without PEG 8K; temperature not stated for binding assays; conditions: protein: recombinant; label: 5'-fluorescein (FAM); (complement implied by Watson-Crick pairing)
hUNG catalytic domain [3] = target: T1, hUNG catalytic domain; test: fluorescence anisotropy; dilute buffer; 20 mM HEPES pH 7.5, 3 mM EDTA, 1 mM DTT, 0.002% Brij 35, 22 mM total Na+; with or without PEG 8K; temperature not stated for binding assays; conditions: protein: recombinant; label: 5'-fluorescein (FAM); (complement implied by Watson-Crick pairing)

DS specific 19mer duplex (2-AP next to Ubeta)
Kd (hUNG catalytic domain [1]; 5% PEG 8K): 0.31 nM
Kd (hUNG catalytic domain [1]; 10% PEG 8K): 0.2 nM
Kd (hUNG catalytic domain [1]; 15% PEG 8K): 0.7 nM
Kd (hUNG catalytic domain [1]; 20% PEG 8K, fast phase koff used): 1.2 nM
Kd (hUNG catalytic domain [1]; dilute buffer, text of Methods gives 0.3 nM): 0.4 nM

B1: DN nonspecific 15mer duplex (dsDNA)
DNA 1: AGGCGCATAGTCGCA
DNA 2: TGCGACTATGCGCCT
Kd (hUNG catalytic domain [2]): 2300 ± 500 nM
Kd (hUNG catalytic domain [3]): 1300 ± 500 nM
